Changes are numbered by the printed parent chain. In names and notes the source's numbering stands. Like-named read-outs stand apart in the source and are kept apart here. Blank lines part the entries; values can stand above or below the binder they belong to.
How the values were obtained:
[1] = biological target: T1, His-tagged SIRT1 catalytic domain (His-tagged SIRT1^CAT) (human, UniProt Q96EB6 234-510); test: pull-down
T1 sequence (looked up): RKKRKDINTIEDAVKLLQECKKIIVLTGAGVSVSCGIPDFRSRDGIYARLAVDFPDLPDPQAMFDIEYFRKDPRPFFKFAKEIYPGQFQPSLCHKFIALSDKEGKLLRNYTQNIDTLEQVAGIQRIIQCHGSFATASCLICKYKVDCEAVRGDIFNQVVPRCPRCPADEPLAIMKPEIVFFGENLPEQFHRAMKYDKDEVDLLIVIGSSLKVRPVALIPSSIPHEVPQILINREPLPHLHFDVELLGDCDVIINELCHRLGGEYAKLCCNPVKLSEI

[2] = biological target: T2, SIRT1 catalytic domain (SIRT1^CAT), residues 234-510 (human, UniProt Q96EB6 234-510); test: SEC
T2 sequence (looked up): T1 sequence (looked up)

[3] = biological target: T2, SIRT1 catalytic domain (SIRT1^CAT), …; test: SEC; remark: listed apart in the source
SIRT1^CAT S265A = biological target: T3, SIRT1^CAT S265A (human, UniProt Q96EB6 234-510, S265A); test: SEC
T3 sequence (looked up): T1 sequence (looked up) with S32A

SIRT1^CAT R276A = biological target: T4, SIRT1^CAT R276A (human, UniProt Q96EB6 234-510, R276A); test: SEC
T4 sequence (looked up): T1 sequence (looked up) with R43A

SIRT1^CAT Q345A = biological target: T5, SIRT1^CAT Q345A (human, UniProt Q96EB6 234-510, Q345A); test: SEC
T5 sequence (looked up): T1 sequence (looked up) with Q112A

SIRT1^CAT I347A = biological target: T6, SIRT1^CAT I347A (human, UniProt Q96EB6 234-510, I347A); test: SEC
T6 sequence (looked up): T1 sequence (looked up) with I114A

SIRT1^CAT H363A = biological target: T7, SIRT1^CAT H363A (human, UniProt Q96EB6 234-510, H363A); test: SEC
T7 sequence (looked up): T1 sequence (looked up) with H130A

SIRT1^CAT F414A = biological target: T8, SIRT1^CAT F414A (human, UniProt Q96EB6 234-510, F414A); test: SEC
T8 sequence (looked up): T1 sequence (looked up) with F181A

SIRT1^CAT R466A = biological target: T9, SIRT1^CAT R466A (human, UniProt Q96EB6 234-510, R466A); test: SEC
T9 sequence (looked up): T1 sequence (looked up) with R233A

SIRT1^CAT D481A = biological target: T10, SIRT1^CAT D481A (human, UniProt Q96EB6 234-510, D481A); test: SEC
T10 sequence (looked up): T1 sequence (looked up) with D248A

[4] = biological target: T2, SIRT1 catalytic domain (SIRT1^CAT), …; test: SEC; remark: listed apart in the source

Binder: QYLFLPPNRYIFHGAEVYSDSEDDV (domain or fragment, human, UniProt Q96EB6 641-665, looked up) [GST-tagged C-terminal regulatory segment of SIRT1 (GST-CTR)]
binding result [1]: binds

Binder: QYLFLPPNRYIFHGAEVYSDSEDDV (domain or fragment, human, UniProt Q96EB6 641-665, looked up) [SUMO-tagged C-terminal regulatory segment of SIRT1 (SUMO-CTR), residues 641-665]
binding result [2]: binds
binding result [1]: binds

Now from value to binder:

binding result [3]: binds
Binder: QYLFLPPNRYIFHGAAVYSDSEDDV (domain or fragment, human, UniProt Q96EB6 641-665, looked up) [CTR E656A]

binding result (SIRT1^CAT S265A): binds
binding result (SIRT1^CAT R276A): binds
binding result (SIRT1^CAT Q345A): binds
binding result (SIRT1^CAT I347A): binds
binding result (SIRT1^CAT H363A): binds
binding result (SIRT1^CAT F414A): binds
binding result (SIRT1^CAT R466A): binds
binding result (SIRT1^CAT D481A): binds
binding result [4]: binds
Binder: QYLFLPPNRYIFHGAEVYSDSEDDV (domain or fragment, human, UniProt Q96EB6 641-665, looked up) [C-terminal regulatory segment of SIRT1 (CTR), residues 641-665]

Reference: article PMC4211926 (Journal of molecular biology, 2013)
